Source: the supplement of paper PMC9170038

Test system: MS2 coat protein
Test: apparent KD of MS2 coat protein; designed switch direction (-1 OFF switch, 1 ON switch): 1; higher = weaker reporter binding
Outline: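 Apparent KD, taken as the median over clusters for each design, was obtained by curve-fitting normalised cluster fluorescence. Designed RNA switches had been transcribed on Illumina chips by stalled E. coli RNA polymerase and titrated with SNAP-549-labelled MS2 coat protein, doubling from 0.7 or 1.5 nM to 3 µM.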

[1] = Eterna round: R95, input ligand: FMN 200 uM
[2] = Eterna round: R95, input ligand: microRNA oligo, concentration not stated
[3] = Eterna round: R95, input ligand: none
[4] = input ligand: microRNA oligo, concentration not stated

Question: How did the “apparent KD of MS2 coat protein” value [1] turn out when “CGUCCGGCCUGUGCUGGCCGGUGGCUUGUACAUGAGGAUCACCCAUGUUCUUGUGCUGGCUUGUUGCUCGUCUUGUG [salish99_mir208a_r3_022] (puzzle: Sensor for hsa-mir-208a)” was run?
Answer: 27.9 nM

Question: What about the “apparent KD of MS2 coat protein” value [2] of the same sequence?
Answer: 19.1 nM

Question: And the “apparent KD of MS2 coat protein” value [3]?
Answer: 33.4 nM

Question: For “AACAAUCUAUCUGAGGAUAUUAUGAAAUAAACAUGAGGAUCACCCAUGUGCAGGAAAACUGCAUAUGAGAAGGCAGAUAGAUUGA [salish99_ss2_r3_027] (puzzle: Same State 2)”, which “apparent KD of MS2 coat protein” value [1] is on record?
Answer: 18.8 nM

Question: And the “apparent KD of MS2 coat protein” value [2]?
Answer: 336 nM

Question: What about the “apparent KD of MS2 coat protein” value [3] of the same sequence?
Answer: 636 nM

Question: For “AUAAGGCAAGCUUUUUUCUCGUAGUGUAAACAUGAGGAUCACCCAUGUGCUCGCCCUGGAUCUUUGGAUCGCAGAAA [Geedbigexe] (puzzle: Sensor for hsa-mir-208a)”, which “apparent KD of MS2 coat protein” value [1] is on record?
Answer: 46.7 nM

Question: And the “apparent KD of MS2 coat protein” value [2]?
Answer: 18.6 nM

Question: And the “apparent KD of MS2 coat protein” value [3]?
Answer: 45.3 nM

Question: “GCUGCAAUUAACGCCUACAUGAGGAUCACCCAUGUAUGUAGGCAGGAUAUCGUUUGCUUUGCAAACGAGAAGGGCUGUAGUAGC [JL SSNG3 1.13] (Eterna round: R96, puzzle: Same State NG 3)” was tested. Which “apparent KD of MS2 coat protein” value (input ligand: FMN 200 uM) did it give?
Answer: 67.2 nM

Question: What about the “apparent KD of MS2 coat protein” value [4] of the same sequence?
Answer: 84.5 nM

Question: What about the “apparent KD of MS2 coat protein” value (input ligand: none) of the same sequence?
Answer: 108 nM

Question: For “AACAAUCUAUCUGAGGAUAUUAUGAAAUAAACAUGAGGAUCACCCAUGUGCAGGAAAACUGCAUAUGAGAAGGCAGAUAGAUUGA [salish99_ss2_r3_027] (Eterna round: R96, puzzle: Same State 2)”, which “apparent KD of MS2 coat protein” value [4] is on record?
Answer: 274 nM

Question: What does the source list for “UGCUAUUGUAUAUUGGUGCAAGCUUUUUGACAUGAGGAUCACCCAUGUACUCGUCUUAUGUGCAGUCCGUAGACUGC [JL-shm-2.24 Brourd mod] (puzzle: Sensor for hsa-mir-208a)”?
Answer: apparent KD of MS2 coat protein [1]: 47.8 nM; apparent KD of MS2 coat protein [2]: 13.4 nM; apparent KD of MS2 coat protein [3]: 45.6 nM

Question: Which “apparent KD of MS2 coat protein” value (input ligand: FMN 200 uM) does the source give for “UGACACACGGCAGGAUAUGCUUAGCAAAGCUAAGCAGAAGGGCCUCAUGUCGUGGAAAUGUGACAUGAGGAUCACCCAUGUUGC [Omei SS(NG)1 Cv6] (Eterna round: R96, puzzle: Same State NG 1)” here?
Answer: 39.3 nM

Question: What about the “apparent KD of MS2 coat protein” value [4] of the same sequence?
Answer: 20.7 nM

Question: And the “apparent KD of MS2 coat protein” value (input ligand: none)?
Answer: 92.2 nM

Question: How did the “apparent KD of MS2 coat protein” value [1] turn out when “AGCUAUCGAAAACGAUAGCAAAAGCAUGUACAUGAGGAUCACCCAUGUUAUGUACAAGCUUUUUGCUCGUCUUAAAA [Zipper 23 - 11] (puzzle: Sensor for hsa-mir-208a)” was run?
Answer: 326 nM

Question: And the “apparent KD of MS2 coat protein” value [2]?
Answer: 12 nM

Question: And the “apparent KD of MS2 coat protein” value [3]?
Answer: 308 nM

Question: “CUGAGCGAUCAAGGAUAUCACGUCGAAUAGACGUGAGAAGGUGAUAAUUACAUGAGGAUCACCCAUGUAUAACAUGAAGCUCAG [SSNG1/9-A1] (Eterna round: R96, puzzle: Same State NG 1)” was tested. Which “apparent KD of MS2 coat protein” value (input ligand: FMN 200 uM) did it give?
Answer: 16.6 nM

Question: What about the “apparent KD of MS2 coat protein” value [4] of the same sequence?
Answer: 15.6 nM

Question: What about the “apparent KD of MS2 coat protein” value (input ligand: none) of the same sequence?
Answer: 22.4 nM

Question: For “CUCAAAACAAGUUGCAGUGUUCGUCUUUAACAUGAGGAUCACCCAUGUAAUAGCCCGGUGGAAGCGCUCGGGCUACC [Edtireisge] (puzzle: Sensor for hsa-mir-208a)”, which “apparent KD of MS2 coat protein” value [1] is on record?
Answer: 39.8 nM

Question: What about the “apparent KD of MS2 coat protein” value [2] of the same sequence?
Answer: 24 nM

Question: What about the “apparent KD of MS2 coat protein” value [3] of the same sequence?
Answer: 45.5 nM

Question: How did the “apparent KD of MS2 coat protein” value (input ligand: FMN 200 uM) turn out when “GACAUGAGGAUCACCCAUGUGAGCGCUUCAAUUUGCGCGACACAGGAUAUAGCAUGCUAUGCAUGCUAGAAGGGUGGUAAAGAC [Risoeserxe] (Eterna round: R96, puzzle: Same State NG 3)” was run?
Answer: 595 nM

Question: What about the “apparent KD of MS2 coat protein” value [4] of the same sequence?
Answer: 49.9 nM

Question: And the “apparent KD of MS2 coat protein” value (input ligand: none)?
Answer: 140 nM

Question: Which “apparent KD of MS2 coat protein” value (input ligand: FMN 200 uM) does the source give for “UAAAGUUAGCGAGGAUAUCGUUUAUUGAAGUUACGAGAAGGCGCUCUUCUUACAUGAGGAUCACCCAUGUCUGUUUUGCAUGAU [JR_SSNG1_Sub067] (Eterna round: R96, puzzle: Same State NG 1)” here?
Answer: 52 nM

Question: What about the “apparent KD of MS2 coat protein” value [4] of the same sequence?
Answer: 63 nM

Question: And the “apparent KD of MS2 coat protein” value (input ligand: none)?
Answer: 71.3 nM

Question: For “UGCAUACAUGAGGAUCACCCAUGUCAACGUAGUCGAGGAUAUGGGCAGCCGUGAGGCGAACCAGAAGGCGAAUUGU [JL-ss1-3.03 ViennaUCT mod] (puzzle: Same State 1)”, which “apparent KD of MS2 coat protein” value [1] is on record?
Answer: 23.1 nM

Question: And the “apparent KD of MS2 coat protein” value [2]?
Answer: 52.7 nM

Question: And the “apparent KD of MS2 coat protein” value [3]?
Answer: 115 nM

Question: With “AGUCCAGCCUGAGCUGGACAAAAGCAUGUACAUGAGGAUCACCCAUGUCAUGUACAAGCUUUUAGCUCGUCUUAAAA [Mat - hsa-mir-208a - Mod of JL - D14] (puzzle: Sensor for hsa-mir-208a)” as the sequence, how does the “apparent KD of MS2 coat protein” value [1] read?
Answer: 455 nM

Question: And the “apparent KD of MS2 coat protein” value [2]?
Answer: 14.6 nM

Question: And the “apparent KD of MS2 coat protein” value [3]?
Answer: 501 nM

Question: How did the “apparent KD of MS2 coat protein” value (input ligand: FMN 200 uM) turn out when “CUCCAUUGGGUAGGAUAUCUAGGAUAUGGGAAAGACUAAGUCUGUAGGUCACCUAACCCAGAUGGAGAGAAGGACCCAACACUC [pwkr ssNG2 2FMN + F9.40] (Eterna round: R96, puzzle: Same State NG 2)” was run?
Answer: 15.1 nM

Question: What about the “apparent KD of MS2 coat protein” value [4] of the same sequence?
Answer: 15.2 nM

Question: And the “apparent KD of MS2 coat protein” value (input ligand: none)?
Answer: 23.2 nM

Question: With “UGCCUGAGUCGAGGAUAUUAUGGAUCCUUUAAUACAUGAGGAUCACCCAUGUAAUUAAUUAUACAUGAGAAGGCGACUCAGGCU [SSNG2/11-A3] (Eterna round: R96, puzzle: Same State NG 2)” as the sequence, how does the “apparent KD of MS2 coat protein” value [4] read?
Answer: 58.9 nM

Question: What does the source list for “AUUUUUAGUGCAGGAUAUGAUUAACAUGAGGAUCACCCAUGUGGUGUUGUGAGUAAGGAGAGUGAUCAGAAGGGCAUUUUUUUU [JMF's solution 92] (Eterna round: R96, puzzle: Same State NG 2)”?
Answer: apparent KD of MS2 coat protein (input ligand: FMN 200 uM): 1020 nM; apparent KD of MS2 coat protein [4]: 452 nM; apparent KD of MS2 coat protein (input ligand: none): 456 nM

Question: Which results are given for “GUAAGUUUGAUGCUCGUCUCUCCGUACAGACAUGAGGAUCACCCAUGUAGUCGGGAAGUAGCCCGGCCAGUAUGGCC [Zaorve] (puzzle: Sensor for hsa-mir-208a)”?
Answer: apparent KD of MS2 coat protein [1]: 18.1 nM; apparent KD of MS2 coat protein [2]: 22.2 nM; apparent KD of MS2 coat protein [3]: 17.7 nM

Question: How did the “apparent KD of MS2 coat protein” value [1] turn out when “AGCUUACAUGAGGAUCACCCAUGUAGGAAGUACAUAGGAUAUCACCAAAUGGUCGACAUGUGAGAAGGGUGGAAGU [Usarle] (puzzle: Same State 1)” was run?
Answer: 16.2 nM

Question: And the “apparent KD of MS2 coat protein” value [2]?
Answer: 19.4 nM

Question: And the “apparent KD of MS2 coat protein” value [3]?
Answer: 13.5 nM

Question: What does the source list for “ACACGGAUACAUGAGGAUCACCCAUGUACAUGGGUUAUUACAAGCUUUUUGCUUGGGAUUAUUGGGAUUAUUAUUAA [Default title] (puzzle: Sensor for hsa-mir-208a version 2)”?
Answer: apparent KD of MS2 coat protein [1]: 122 nM; apparent KD of MS2 coat protein [2]: 156 nM; apparent KD of MS2 coat protein [3]: 153 nM

Question: Which results are given for “GGAGCCGGUACUGAGGAUAUUCAUAUUAAAACAUGAGGAUCACCCAUGUGGGCCAGAAGGCCUUGGGAGAAGGCAGAUCGGCUCC [Biseusra - 3] (puzzle: Same State 2)”?
Answer: apparent KD of MS2 coat protein [1]: 19 nM; apparent KD of MS2 coat protein [2]: 93.3 nM; apparent KD of MS2 coat protein [3]: 145 nM

Question: Which results are given for “AUAAAACAUGAGGAUCACCCAUGUCAACAAAGUCGAGGAUAUGGGUAAAUAAAAUAAGAACCAGAAGGCGAAUAAU [salish99_ss1_r3_028] (puzzle: Same State 1)”?
Answer: apparent KD of MS2 coat protein [1]: 83.5 nM; apparent KD of MS2 coat protein [2]: 283 nM; apparent KD of MS2 coat protein [3]: 163 nM

Question: With “GUUUCAUCGAAAGGAUAUGUAUUGAUUGCCAUUGCAGAAGGUUCUCAGACAUGAGGAUCACCCAUGUCAAGCGGAAACGUAGUA [Eternabot solution 37] (Eterna round: R96, puzzle: Same State NG 1)” as the sequence, how does the “apparent KD of MS2 coat protein” value (input ligand: FMN 200 uM) read?
Answer: 20.1 nM

Question: And the “apparent KD of MS2 coat protein” value [4]?
Answer: 15.4 nM

Question: What about the “apparent KD of MS2 coat protein” value (input ligand: none) of the same sequence?
Answer: 47.6 nM

Question: Which results are given for “GAGAAGAGGGACAAGGAUAUGUCAGGAGAGACAUGAGGAUCACCCAUGUAGAGGUUGGAGGAGAGACAGAAGGUGUAGGGAGCGA [JR_SS2_Sub012] (puzzle: Same State 2)”?
Answer: apparent KD of MS2 coat protein [1]: 50.1 nM; apparent KD of MS2 coat protein [2]: 57.2 nM; apparent KD of MS2 coat protein [3]: 98 nM
